One data set concerns splenic T cells. The experiment in a line: Autologous mixed lymphocyte reaction of splenic T cells from treated bleomycin mice. The format is in vivo, mouse. The note with it: day 7 to 21. An excerpt:
Recent studies highlighted a key role for T lymphocytes in bleomycin-induced fibrosis (Wilson, M. et al., The Journal of Experimental Medicine, 207(3): 535-552, 2010). […] Specifically, the ability of C57BL/6 purified antigen-presenting cells to induce proliferation in C57BL/6 T lymphocytes was examined in the assay.
C57-BL/6 mice were subjected to bleomycin injury at day 0. […] Splenic T cells were isolated and cultured alone or in the presence of autologous antigen presenting cells (APCs from C57-BL/6 mice) or stimulated with antibodies against CD3 (α-CD3) for 48 h. The cells then were radiolabeled with […] thymidine for 16 h and assessed for proliferation rates.

Data set [1] deals with bleomycin-induced lung fibrosis in C57BL/6 mice. The experiment in a line: Bleomycin mouse model of pulmonary fibrosis, treatment model (dosing day 14 to 28). The data set is classed as in vivo. Details: collagen deposition (hydroxyproline assay, whole left lung): dose or concentration left out as unconfirmed. The procedure: A mouse model of pulmonary fibrosis was generated by administering 0.025 U of bleomycin/PBS intratracheally to C57BL/6 mice. […] At 21 day post bleomycin delivery (for prevention model) or 28 post bleomycin delivery (for treatment model), groups of mice were sacrificed with a sodium pentobarbital injection (120 mg/kg) and the chest cavity was opened. The right mainstem bronchus was ligated and the right lung was removed. The trachea was cannulated and the left lung was perfused with 4% formaldehyde at 21 cm H2O pressure. The tissue blocks then were embedded in paraffin, and […] sections were prepared for staining. Sections from each animal were stained with hematoxylin and eosin (H&E) to visualize cells or with Masson's Trichrome staining to highlight collagen deposition. […] Stained sections were mounted onto a labeled glass slide with organic mounting medium.
The classic bleomycin model, as depicted in FIG. 10, has been used widely in the literature in the pre-fibrotic stage to test efficacy of any intervention. […]
Next, collagen deposition was determined quantitatively by using the standard hydroxyproline assay with whole left lung. Total collagen (soluble and insoluble) deposition was assessed by analyzing hydroxyproline concentrations in murine lungs day 28 post bleomycin injury.

The subject of data set [2] is human fetal lung fibroblasts (IMR-90). The experiment in a line: TGF-β1-induced myofibroblast activation in IMR-90 cells, α-SMA immunoblot. The note with it: 1 h pre-treatment, TGF-β1 2 ng/ml 48 h. The data set is classed as cell-based. An excerpt:
Cell lysates were immunoblotted against antibodies for α-SMA (a marker for myofibroblast activation) and GAPDH (loading control).

The target in a further data set is CK1γ3(h) (Homo sapiens, UniProt Q9Y6M4). The data set can be described thus: Kinase Profiling Assay. The format is biochemical. The note with it: 100 μM peptide. An outline of the steps: (§1)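 Specificity of the MK2-directed peptides is examined by measuring activity of 266 human kinases, every determination performed in duplicate.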
The next data set deals with CK2α2(h) (Homo sapiens, UniProt P19784). The experiment in a line: Kinase Profiling Assay. The data set is classed as biochemical. To be noted: 100 μM peptide. An outline of the steps:
as §1

The target in a further data set is T1, IGF-1R(h) (Homo sapiens, UniProt P08069).
T1 construct: purchased Millipore
The data set can be described thus: Kinase Profiling Assay. The format is biochemical. To be noted: 100 μM peptide. The method, boiled down: as §1

The target in the next data set is PAK3(h) (Homo sapiens, UniProt O75914). The data set can be described thus: Kinase Profiling Assay. The format is biochemical. To be noted: 100 μM peptide. The method, boiled down: as §1
The next data set concerns the target PAR-1Bα(h) (Homo sapiens, UniProt Q7KZI7). The experiment in a line: Kinase Profiling Assay. The format is biochemical. The note with it: 100 μM peptide. An outline of the steps:
as §1

Another data set has as its target PKA(h) (Homo sapiens, UniProt P17612). The data set can be described thus: Kinase Profiling Assay. The format is biochemical. To be noted: 100 μM peptide. The method, boiled down:
as §1

The target of the next data set is Tie2(R849W)(h) (Homo sapiens, UniProt Q02763, R849W). The experiment in a line: Kinase Profiling Assay. The format is biochemical. The note with it: 100 μM peptide. An outline of the steps:
as §1

A further data set deals with Abl(H396P)(h) (Homo sapiens, UniProt P00519, H396P). The experiment in a line: Kinase Profiling Assay. The data set is classed as biochemical. The note with it: 100 μM peptide. An outline of the steps:
as §1

A further data set concerns the target T2, Aurora-A(h) (Homo sapiens, UniProt O14965).
T2 sequence (O14965 1-403): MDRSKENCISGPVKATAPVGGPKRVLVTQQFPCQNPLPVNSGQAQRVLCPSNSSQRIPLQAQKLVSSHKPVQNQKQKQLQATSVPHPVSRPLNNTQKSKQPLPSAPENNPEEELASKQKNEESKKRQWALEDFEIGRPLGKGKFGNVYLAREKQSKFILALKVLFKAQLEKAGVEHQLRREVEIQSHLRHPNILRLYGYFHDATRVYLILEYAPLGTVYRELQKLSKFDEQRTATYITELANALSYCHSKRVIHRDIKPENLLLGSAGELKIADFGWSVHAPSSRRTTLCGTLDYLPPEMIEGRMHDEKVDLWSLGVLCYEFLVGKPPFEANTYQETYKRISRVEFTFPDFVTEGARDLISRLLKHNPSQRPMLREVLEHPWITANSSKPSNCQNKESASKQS
The data set can be described thus: Kinase Profiling Assay. The format is biochemical. To be noted: 100 μM peptide. The method, boiled down:
as §1

A further data set concerns the target EGFR(T790M)(h) (Homo sapiens, UniProt P00533, T790M). The experiment in a line: Kinase Profiling Assay. The format is biochemical. The note with it: 100 μM peptide. An outline of the steps:
as §1

In another data set the target is T3, HIPK3(h) (Homo sapiens, UniProt Q9H422).
T3 construct: purchased Millipore
The data set can be described thus: Kinase Profiling Assay. The format is biochemical. The note with it: 100 μM peptide. The method, boiled down: as §1

Another data set concerns the target Lck(h) (Homo sapiens, UniProt P06239). The experiment in a line: Kinase Profiling Assay. The note with it: 100 μM peptide. The data set is classed as biochemical. The method, boiled down:
as §1

Another data set has as its target MRCKα(h) (Homo sapiens, UniProt Q5VT25). The data set can be described thus: Kinase Profiling Assay. The format is biochemical. The note with it: 100 μM peptide. The method, boiled down:
as §1

The next data set addresses PDGFRα(D842V)(h) (Homo sapiens, UniProt P16234, D842V). The data set can be described thus: Kinase Profiling Assay. The format is biochemical. The note with it: 100 μM peptide. An outline of the steps: as §1
A further data set has as its target Snk(h) (Homo sapiens, UniProt Q9NYY3). The data set can be described thus: Kinase Profiling Assay. The data set is classed as biochemical. To be noted: 100 μM peptide. The method, boiled down:
as §1

Another data set concerns the target T4, JNK1α1(h) (Homo sapiens, UniProt P45983).
T4 construct: purchased Millipore
The data set can be described thus: Kinase Profiling Assay. The format is biochemical. The note with it: 100 μM peptide. The method, boiled down:
as §1

Where a SMILES comes first, the peptide text is derived from it.

T3 sequence (Q9H422 whole entry): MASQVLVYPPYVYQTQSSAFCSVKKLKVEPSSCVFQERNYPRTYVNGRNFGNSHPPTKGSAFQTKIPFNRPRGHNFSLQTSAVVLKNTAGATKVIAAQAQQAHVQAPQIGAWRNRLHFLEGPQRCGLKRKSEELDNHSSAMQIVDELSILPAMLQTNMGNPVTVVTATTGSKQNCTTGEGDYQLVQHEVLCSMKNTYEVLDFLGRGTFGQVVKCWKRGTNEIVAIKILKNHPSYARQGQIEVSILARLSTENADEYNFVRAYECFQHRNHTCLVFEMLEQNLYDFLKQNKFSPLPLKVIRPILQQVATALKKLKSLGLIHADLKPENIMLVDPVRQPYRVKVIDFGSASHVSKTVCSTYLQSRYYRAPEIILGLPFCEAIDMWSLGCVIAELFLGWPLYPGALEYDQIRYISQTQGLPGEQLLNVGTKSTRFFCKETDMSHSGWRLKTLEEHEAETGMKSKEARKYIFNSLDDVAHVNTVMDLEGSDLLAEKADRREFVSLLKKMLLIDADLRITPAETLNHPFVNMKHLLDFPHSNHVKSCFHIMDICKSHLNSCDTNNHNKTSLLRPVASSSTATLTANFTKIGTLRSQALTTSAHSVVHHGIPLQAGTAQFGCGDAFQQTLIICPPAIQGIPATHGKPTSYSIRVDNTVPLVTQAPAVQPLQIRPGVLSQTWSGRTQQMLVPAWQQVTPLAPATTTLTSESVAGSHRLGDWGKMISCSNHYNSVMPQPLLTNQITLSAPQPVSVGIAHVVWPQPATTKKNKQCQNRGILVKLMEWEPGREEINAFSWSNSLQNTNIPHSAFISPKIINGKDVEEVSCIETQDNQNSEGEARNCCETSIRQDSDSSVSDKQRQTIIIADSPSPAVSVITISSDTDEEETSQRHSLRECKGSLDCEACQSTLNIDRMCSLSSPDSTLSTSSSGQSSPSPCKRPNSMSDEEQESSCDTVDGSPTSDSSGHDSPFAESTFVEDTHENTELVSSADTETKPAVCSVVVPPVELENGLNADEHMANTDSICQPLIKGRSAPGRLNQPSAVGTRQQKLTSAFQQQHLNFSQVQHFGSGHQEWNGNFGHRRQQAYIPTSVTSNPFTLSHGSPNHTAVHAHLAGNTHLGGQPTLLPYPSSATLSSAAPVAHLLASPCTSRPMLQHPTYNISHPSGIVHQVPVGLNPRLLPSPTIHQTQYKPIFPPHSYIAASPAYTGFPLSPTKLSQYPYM
Sequence of PAR-1Bα(h) (Q7KZI7 1-725 isoform Q7KZI7-4): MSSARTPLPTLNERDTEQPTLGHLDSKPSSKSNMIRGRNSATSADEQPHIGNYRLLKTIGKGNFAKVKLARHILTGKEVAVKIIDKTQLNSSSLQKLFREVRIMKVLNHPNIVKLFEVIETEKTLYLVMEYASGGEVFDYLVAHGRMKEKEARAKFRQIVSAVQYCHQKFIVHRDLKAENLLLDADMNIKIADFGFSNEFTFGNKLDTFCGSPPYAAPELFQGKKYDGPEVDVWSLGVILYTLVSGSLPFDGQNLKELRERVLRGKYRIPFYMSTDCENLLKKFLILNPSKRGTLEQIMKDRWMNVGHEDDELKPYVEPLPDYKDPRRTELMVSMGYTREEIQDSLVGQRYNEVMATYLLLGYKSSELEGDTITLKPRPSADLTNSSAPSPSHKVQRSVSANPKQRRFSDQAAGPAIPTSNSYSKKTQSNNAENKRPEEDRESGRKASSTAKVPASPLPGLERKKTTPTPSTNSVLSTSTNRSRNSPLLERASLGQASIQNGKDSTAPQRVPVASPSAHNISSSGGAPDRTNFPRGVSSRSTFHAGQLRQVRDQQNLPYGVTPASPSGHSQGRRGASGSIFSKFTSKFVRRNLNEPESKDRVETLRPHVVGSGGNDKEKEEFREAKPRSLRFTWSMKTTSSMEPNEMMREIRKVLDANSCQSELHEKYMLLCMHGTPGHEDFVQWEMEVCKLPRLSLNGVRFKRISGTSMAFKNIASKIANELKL
Sequence of PAK3(h) (O75914 whole entry): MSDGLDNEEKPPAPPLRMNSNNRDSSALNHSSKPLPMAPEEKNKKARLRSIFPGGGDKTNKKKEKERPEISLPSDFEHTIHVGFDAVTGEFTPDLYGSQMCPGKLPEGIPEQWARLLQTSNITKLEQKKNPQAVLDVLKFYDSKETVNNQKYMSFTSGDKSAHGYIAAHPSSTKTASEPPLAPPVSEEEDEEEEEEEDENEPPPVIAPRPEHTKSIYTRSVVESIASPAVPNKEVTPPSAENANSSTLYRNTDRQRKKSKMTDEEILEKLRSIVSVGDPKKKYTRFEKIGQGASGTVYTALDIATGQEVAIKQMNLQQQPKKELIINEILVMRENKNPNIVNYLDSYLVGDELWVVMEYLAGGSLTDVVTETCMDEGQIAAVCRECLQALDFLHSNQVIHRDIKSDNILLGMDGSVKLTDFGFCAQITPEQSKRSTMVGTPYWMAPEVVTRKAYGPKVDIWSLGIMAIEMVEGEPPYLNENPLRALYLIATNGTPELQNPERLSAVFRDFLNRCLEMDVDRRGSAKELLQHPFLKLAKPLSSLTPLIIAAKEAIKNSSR
Sequence of Lck(h) (P06239 whole entry): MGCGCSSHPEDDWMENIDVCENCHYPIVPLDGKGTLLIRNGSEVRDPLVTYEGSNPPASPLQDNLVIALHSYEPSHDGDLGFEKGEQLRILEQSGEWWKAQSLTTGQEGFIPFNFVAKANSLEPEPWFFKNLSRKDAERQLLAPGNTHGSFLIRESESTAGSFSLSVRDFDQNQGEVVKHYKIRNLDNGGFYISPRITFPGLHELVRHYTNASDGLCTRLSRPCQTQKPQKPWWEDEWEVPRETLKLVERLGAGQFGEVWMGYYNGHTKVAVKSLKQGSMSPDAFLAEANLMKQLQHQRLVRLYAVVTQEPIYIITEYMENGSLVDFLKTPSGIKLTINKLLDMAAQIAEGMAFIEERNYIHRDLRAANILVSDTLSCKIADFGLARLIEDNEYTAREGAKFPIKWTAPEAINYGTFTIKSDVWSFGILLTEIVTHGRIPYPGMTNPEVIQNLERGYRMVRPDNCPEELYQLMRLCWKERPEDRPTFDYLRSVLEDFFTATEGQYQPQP
Sequence of Snk(h) (Q9NYY3 whole entry): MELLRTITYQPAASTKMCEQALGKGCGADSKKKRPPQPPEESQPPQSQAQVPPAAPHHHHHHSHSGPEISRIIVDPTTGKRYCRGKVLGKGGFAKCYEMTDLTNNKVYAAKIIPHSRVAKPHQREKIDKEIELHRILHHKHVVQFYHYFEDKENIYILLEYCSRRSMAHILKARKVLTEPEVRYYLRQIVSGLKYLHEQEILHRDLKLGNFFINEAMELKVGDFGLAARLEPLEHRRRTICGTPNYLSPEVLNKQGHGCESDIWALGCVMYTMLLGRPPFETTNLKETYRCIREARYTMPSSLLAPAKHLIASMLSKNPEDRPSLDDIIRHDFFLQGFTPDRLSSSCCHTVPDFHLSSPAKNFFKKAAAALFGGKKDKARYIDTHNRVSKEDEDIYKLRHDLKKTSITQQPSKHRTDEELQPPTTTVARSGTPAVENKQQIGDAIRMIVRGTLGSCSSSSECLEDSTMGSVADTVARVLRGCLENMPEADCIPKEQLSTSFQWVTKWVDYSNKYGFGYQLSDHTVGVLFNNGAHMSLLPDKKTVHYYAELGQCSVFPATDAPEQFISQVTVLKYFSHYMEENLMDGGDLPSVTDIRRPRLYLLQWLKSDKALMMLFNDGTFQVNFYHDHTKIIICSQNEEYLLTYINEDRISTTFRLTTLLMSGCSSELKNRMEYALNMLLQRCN
Sequence of Tie2(R849W)(h) (Q02763 23-1124 R849W): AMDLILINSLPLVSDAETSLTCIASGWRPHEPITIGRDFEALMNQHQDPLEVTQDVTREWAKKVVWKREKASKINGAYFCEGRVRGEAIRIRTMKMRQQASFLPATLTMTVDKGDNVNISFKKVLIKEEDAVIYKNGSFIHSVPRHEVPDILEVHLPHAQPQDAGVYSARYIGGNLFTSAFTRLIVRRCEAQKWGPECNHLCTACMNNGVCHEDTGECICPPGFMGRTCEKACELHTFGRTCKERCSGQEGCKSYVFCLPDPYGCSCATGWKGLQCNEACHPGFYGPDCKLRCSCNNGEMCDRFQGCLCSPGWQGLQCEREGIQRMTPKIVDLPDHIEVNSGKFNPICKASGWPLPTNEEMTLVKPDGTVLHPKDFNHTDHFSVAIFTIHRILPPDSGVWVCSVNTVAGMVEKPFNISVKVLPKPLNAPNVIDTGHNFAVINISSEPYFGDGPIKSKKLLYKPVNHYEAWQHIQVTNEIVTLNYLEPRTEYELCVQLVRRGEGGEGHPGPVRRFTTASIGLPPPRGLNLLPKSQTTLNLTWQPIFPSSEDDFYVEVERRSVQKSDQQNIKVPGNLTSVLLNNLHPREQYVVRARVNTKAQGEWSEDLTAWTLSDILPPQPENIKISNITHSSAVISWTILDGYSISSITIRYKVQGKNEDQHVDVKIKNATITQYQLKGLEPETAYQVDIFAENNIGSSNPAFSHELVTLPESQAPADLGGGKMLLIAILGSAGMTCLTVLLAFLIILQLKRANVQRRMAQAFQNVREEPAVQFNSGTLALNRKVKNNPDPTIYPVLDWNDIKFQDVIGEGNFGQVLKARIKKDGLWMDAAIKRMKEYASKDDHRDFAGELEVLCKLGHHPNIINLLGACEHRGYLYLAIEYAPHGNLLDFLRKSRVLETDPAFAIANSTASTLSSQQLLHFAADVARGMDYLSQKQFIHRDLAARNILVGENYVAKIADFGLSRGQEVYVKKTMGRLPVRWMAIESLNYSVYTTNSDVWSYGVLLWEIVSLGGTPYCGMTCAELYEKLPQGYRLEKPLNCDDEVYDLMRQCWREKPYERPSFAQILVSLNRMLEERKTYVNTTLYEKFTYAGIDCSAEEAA

For `CC(C)C[C@H](NC(=O)[C@H](C)NC(=O)[C@H](CCCCN)NC(=O)[C@H](C)NC(=O)[C@H](CCCNC(=N)N)NC(=O)[C@H](C)NC(=O)[C@H](CCC(N)=O)NC(=O)[C@H](CCCNC(=N)N)NC(=O)[C@H](C)NC(=O)[C@H](C)NC(=O)[C@H](C)NC(=O)[C@H](CCCNC(=N)N)NC(=O)[C@H](C)NC(=O)[C@@H](N)Cc1ccc(O)cc1)C(=O)N[C@@H](C)C(=O)N[C@@H](CCCNC(=N)N)C(=O)N[C@@H](CCC(N)=O)C(=O)N[C@@H](CC(C)C)C(=O)NCC(=O)N[C@H](C(=O)N[C@@H](C)C(=O)N[C@@H](C)C(=O)O)C(C)C` [MMI-0100] (H-YARAAARQARAKALARQLGVAA-OH; N-terminus and C-terminus assumed), the results for the “proliferation of T cells in the presence of antigen presenting cells” value in the data set with splenic T cells (50 μg/kg/day intraperitoneal (systemic)) and in the data set on splenic T cells (50 μg/kg/day nebulizer (inhaled)) were “significantly reduced” and “not by the inhaled mode”, respectively. Besides, the “toxicity (proliferative response of splenic T cells to α-CD3)” value with splenic T cells (50 μg/kg/day) is given as “no toxicity”. Moreover, in data set [1] (IP or NEB from day 14, day 28 post bleomycin), the “collagen deposition (hydroxyproline assay, whole left lung)” value is recorded as “significantly arrested further progression of collagen deposition”. Moreover, the “lung architecture and collagen distribution (H&E, Masson's blue trichrome)” value in data set [1] (intraperitoneal or nebulized, daily day 14 to 28) was “clearer lung parenchyma”. In addition, in data set [2], the “protein level of α-smooth muscle actin (α-SMA)” value is given as “decreases in the levels”.

In the case of “YARAAARQARAKALNRQLGVA (Mammalian) [MMI-0200]”, the “CK1γ3(h) % activity” value in the data set with CK1γ3(h) is given as 96%. Also, in the data set with CK2α2(h), the “CK2α2(h) % activity” value is reported as 88%. Also, the “IGF-1R(h) % activity” value with IGF-1R(h) is listed as 49%. In addition, the “PAK3(h) % activity” value in the data set with PAK3(h) was found to be 50%. In the data set with PAR-1Bα(h), the “PAR-1Bα(h) % activity” value stood at 110%. Further, the “PKA(h) % activity” value in the data set with PKA(h) is reported as 110%. Also, the “Tie2(R849W)(h) % activity” value in the data set with Tie2(R849W)(h) was determined as 89%. Also, the “protein level of α-smooth muscle actin (α-SMA)” value in data set [2] is reported as “no changes in the protein level”.

On to “HRRIKAWLKKIKALARQLGVAA (Mammalian) [MMI-0500]”, for which the “Abl(H396P)(h) % activity” value with Abl(H396P)(h) came to 51%. Also, the “Aurora-A(h) % activity” value in the data set with Aurora-A(h) is 110%. Besides, the “EGFR(T790M)(h) % activity” value with EGFR(T790M)(h) is given as 70%. Also, in the data set with HIPK3(h), the “HIPK3(h) % activity” value came to 85%. Also, the “Lck(h) % activity” value with Lck(h) was 359%. Further, the “MRCKα(h) % activity” value with MRCKα(h) came to 5%. In addition, the “PAR-1Bα(h) % activity” value in the data set with PAR-1Bα(h) is recorded as 97%. For the same compound, the “PDGFRα(D842V)(h) % activity” value in the data set with PDGFRα(D842V)(h) is given as 170%. Also, the “PKA(h) % activity” value in the data set with PKA(h) was determined as 118%. Moreover, in the data set with Snk(h), the “Snk(h) % activity” value was 122%.

With KAFAKLAARLYRKALARQLGVAA [MMI-0400], the “CK2α2(h) % activity” value with CK2α2(h) worked out at 96%. Besides, the “IGF-1R(h) % activity” value in the data set with IGF-1R(h) was found to be 90%. In addition, in the data set with JNK1α1(h), the “JNK1α1(h) % activity” value is 98%. Moreover, the “MRCKα(h) % activity” value with MRCKα(h) is on record as 97%. Besides, in the data set with PDGFRα(D842V)(h), the “PDGFRα(D842V)(h) % activity” value was 118%. For the same compound, in the data set with Snk(h), the “Snk(h) % activity” value worked out at 131%. Besides, the “Tie2(R849W)(h) % activity” value with Tie2(R849W)(h) was 108%.

Consider FAKLAARLYRKALARQLGVAA [MMI-0300], for which the “Abl(H396P)(h) % activity” value in the data set with Abl(H396P)(h) came to 101%. Besides, the “Aurora-A(h) % activity” value in the data set with Aurora-A(h) came to 92%. Also, in the data set with CK1γ3(h), the “CK1γ3(h) % activity” value is listed as 125%. Further, the “EGFR(T790M)(h) % activity” value with EGFR(T790M)(h) is on record as 100%. For the same compound, the “HIPK3(h) % activity” value with HIPK3(h) was 93%. Also, the “JNK1α1(h) % activity” value with JNK1α1(h) was 97%. Moreover, in the data set with Lck(h), the “Lck(h) % activity” value was −2%. Further, the “PAK3(h) % activity” value with PAK3(h) stood at 140%.

Values taken from US10562947B2, “Compositions and methods for preventing or treating diseases, conditions or processes characterized by aberrant fibroblast proliferation and extracellular matrix deposition” (MOERAE MATRIX, INC., priority 2011, dated 2020).
